Measurements reported in patent US20230151437A1 (Harvard, published 2023).

B1: iPAK4 (fusion of the catalytic domain of the Pak4 kinase and the 38 amino acid iBox domain of its inhibitor Inka1) (other)
chain: MDYKDDDDKSGSEAEDWTAALLNRGRSRQPLVLGDNCFADLVHNWMELPEEFPAAPAVPGPPGPRSPQREPQRVSHEQFRAALQLVVDPGDPRSYLDNFIKIGEGSTGIVCIATVRSSGKLVAVKKMDLRKQQRRELLFNEVVIMRDYQHENVVEMYNSYLVGDELWVVMEFLEGGALTDIVTHTRMNEEQIAAVCLAVLQALSVLHAQGVIHRDIKSDSILLTHDGRVKLSDFGFCAQVSKEVPRRKSLVGTPYWMAPELISRLPYGPEVDIWSLGIMVIEMVDGEPPYFNEPPLKAMKMIRDNLPPRLKNLHKVSPSLKGFLDRLLVRDPAQRATAAELLKHPFLAKAGPPASIVPLMRQNRTR
notes: also called ibox-PAK4cat; CMV::iPAK4
B2: HaloTag-iPAK4 (other)
chain: MIGTGFPFDPHYVEVLGERMHYVDVGPRDGTPVLFLHGNPTSSYVWRNIIPHVAPTHRCIAPDLIGMGKSDKPDLGYFFDDHVRFMDAFIEALGLEEVVLVIHDWGSALGFHWAKRNPERVKGIAFMEFIRPIPTWDEWPEFARETFQAFRTTDVGRKLIIDQNVFIEGTLPMGVVRPLTEVEMDHYREPFLNPVDREPLWRFPNELPIAGEPANIVALVEEYMDWLHQSPVPKLLFWGTPGVLIPPAEAARLAKSLPNCKAVDIGPGLNLLQEDNPDLIGSEIARWLSTLEISGEPTTSGSEAEDWTAALLNRGRSRQPLVLGDNCFADLVHNWMELPEEFPAAPAVPGPPGPRSPQREPQRVSHEQFRAALQLVVDPGDPRSYLDNFIKIGEGSTGIVCIATVRSSGKLVAVKKMDLRKQQRRELLFNEVVIMRDYQHENVVEMYNSYLVGDELWVVMEFLEGGALTDIVTHTRMNEEQIAAVCLAVLQALSVLHAQGVIHRDIKSDSILLTHDGRVKLSDFGFCAQVSKEVPRRKSLVGTPYWMAPELISRLPYGPEVDIWSLGIMVIEMVDGEPPYFNEPPLKAMKMIRDNLPPRLKNLHKVSPSLKGFLDRLLVRDPAQRATAAELLKHPFLAKAGPPASIVPLMRQNRTR
notes: also called HT-iPAK4; CMV::HT-iPAK4

Legend:
[1] = target: the molecule itself; test: time-lapse fluorescence microscopy of intracellular self-assembly in cultured rat hippocampal neurons
[2] = target: B1; test: co-expression in HEK cells; fluorescence imaging of HT-iPAK4 incorporated into iPAK4 assemblies
Experimental: To assess the suitability of iPAK4 assemblies as a recording medium, a detailed characterization of their nucleation and growth was performed. CMV::iPAK4 (90%), CMV::eGFP-iPAK4 (5%), and CMV::HT-iPAK4 (5%) were co-expressed in HEK cells using lentiviral transduction, and JF₆₆₉ was added to the medium to label the HT. Time-lapse video microscopy was recorded over a 13 hour interval starting 1 hour after transfection, and over 43 hours starting 20 hours after transfection. The fluorescence of the cytoplasm and the growth of individual assemblies was then tracked. Initially, green (eGFP) and red (HT-JF₆₆₉) fluorescence accumulated in the cytoplasm. Upon nucleation, assemblies grew quickly (˜0.5 μm/min) at first, while the cytoplasmic fluorescence dropped. This phase typically lasted approximately 1 h. The assemblies then transitioned to slower linear growth (FIG. 1E). […] A simple mass-action kinetic model predicted the two-phase growth profiles and quantitatively reproduced the observed growth profiles (Calculation 1, FIGS. 7A-7E).

Binder | binding result [1] | binding result [2]
B1 | binds | 
B2 |  | binds
